Experimental data reported in patent publication US11873336 (TENEOBIO, dated 2024).
Positions count from the first letter of the chain named.

T1: human CD22 protein (recombinant CD22 extracellular domain) (human, UniProt P20273 20-687)
T1 construct: extracellular domain; also called SIGLEC-2
T1 sequence (looked up): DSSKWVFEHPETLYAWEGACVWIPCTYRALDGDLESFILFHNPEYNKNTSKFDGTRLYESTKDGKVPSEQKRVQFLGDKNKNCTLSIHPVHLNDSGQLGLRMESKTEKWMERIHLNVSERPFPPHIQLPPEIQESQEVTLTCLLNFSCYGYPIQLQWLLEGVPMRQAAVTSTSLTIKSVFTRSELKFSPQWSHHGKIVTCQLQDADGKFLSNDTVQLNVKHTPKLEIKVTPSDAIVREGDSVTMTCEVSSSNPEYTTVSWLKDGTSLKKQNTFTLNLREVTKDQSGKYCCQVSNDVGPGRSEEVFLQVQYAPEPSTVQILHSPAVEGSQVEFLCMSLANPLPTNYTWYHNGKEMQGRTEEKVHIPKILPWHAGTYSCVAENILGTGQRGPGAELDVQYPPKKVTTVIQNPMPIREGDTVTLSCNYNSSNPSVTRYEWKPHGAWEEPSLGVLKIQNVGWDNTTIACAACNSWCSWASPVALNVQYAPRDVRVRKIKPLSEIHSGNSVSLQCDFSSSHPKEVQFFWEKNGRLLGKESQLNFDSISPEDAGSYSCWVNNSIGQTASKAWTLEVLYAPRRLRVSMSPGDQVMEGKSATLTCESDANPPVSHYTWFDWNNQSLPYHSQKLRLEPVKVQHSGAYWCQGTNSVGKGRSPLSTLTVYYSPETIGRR

T2: human CD22 on CD22-positive Burkitt's lymphoma cells (Daudi, Raji, Ramos) (human, UniProt P20273 20-847)
T2 construct: whole, on cells; also called CD22+ cells; CD22 positive cells
T2 sequence (looked up): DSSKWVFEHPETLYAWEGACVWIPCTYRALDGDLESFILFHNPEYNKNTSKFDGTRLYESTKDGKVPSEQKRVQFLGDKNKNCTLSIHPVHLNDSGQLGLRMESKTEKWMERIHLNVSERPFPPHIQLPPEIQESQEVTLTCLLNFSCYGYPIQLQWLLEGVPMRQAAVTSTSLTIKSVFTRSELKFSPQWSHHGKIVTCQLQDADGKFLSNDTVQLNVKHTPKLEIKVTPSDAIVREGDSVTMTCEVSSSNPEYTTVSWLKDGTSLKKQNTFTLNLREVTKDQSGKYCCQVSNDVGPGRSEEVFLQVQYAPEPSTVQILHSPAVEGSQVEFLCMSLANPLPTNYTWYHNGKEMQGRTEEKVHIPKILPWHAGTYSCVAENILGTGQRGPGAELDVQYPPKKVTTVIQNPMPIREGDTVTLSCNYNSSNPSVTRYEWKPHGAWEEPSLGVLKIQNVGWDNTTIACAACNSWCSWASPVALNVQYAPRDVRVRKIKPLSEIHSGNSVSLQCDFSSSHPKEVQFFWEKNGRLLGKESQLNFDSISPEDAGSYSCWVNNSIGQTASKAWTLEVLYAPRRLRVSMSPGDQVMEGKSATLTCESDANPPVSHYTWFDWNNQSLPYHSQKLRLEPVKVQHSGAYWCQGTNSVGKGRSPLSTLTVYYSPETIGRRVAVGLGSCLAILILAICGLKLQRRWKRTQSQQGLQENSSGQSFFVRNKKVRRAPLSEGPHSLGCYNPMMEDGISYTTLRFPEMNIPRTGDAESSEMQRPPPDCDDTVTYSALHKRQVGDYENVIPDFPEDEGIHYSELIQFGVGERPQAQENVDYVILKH

B1: anti-CD22 heavy chain-only antibody with the VH of SEQ ID NO: 39 (antibody, V domains shown)
VH: QLQLQESGPGLVKPSETLSLTCTVSGDSISSGDYYWGWIRQPPGKGLEWIGHIYYSGATYYNPSLKNRVTISVDTSKNQFSLKLSSVTAADTAVYYCTREDSSNWRSRGQGTLVTVSS
notes: Heavy chain-only antibody (UniAb), human IgG
B2: anti-CD22 heavy chain-only antibody with the VH of SEQ ID NO: 31 (antibody, V domains shown)
VH: B1 VH with D33G, E100D
notes: as for B1
B3: anti-CD22 heavy chain-only antibody with the VH of SEQ ID NO: 38 (antibody, V domains shown)
VH: B1 VH with K77R, K83N
notes: as for B1
B4: anti-CD22 heavy chain-only antibody with the VH of SEQ ID NO: 25 (antibody, V domains shown)
VH: B1 VH with K66E, E100D
notes: as for B1
B5: anti-CD22 heavy chain-only antibody with the VH of SEQ ID NO: 37 (antibody, V domains shown)
VH: B1 VH with A58V
notes: as for B1
B6: anti-CD22 heavy chain-only antibody with the VH of SEQ ID NO: 30 (antibody, V domains shown)
VH: B1 VH with E100D
notes: as for B1
B7: anti-CD22 heavy chain-only antibody with the VH of SEQ ID NO: 34 (antibody, V domains shown)
VH: B1 VH with A58V, K77R
notes: as for B1
B8: anti-CD22 heavy chain-only antibody with the VH of SEQ ID NO: 50 (antibody, V domains shown)
VH: B1 VH with H52N, E100D
notes: as for B1
B9: anti-CD22 heavy chain-only antibody with the VH of SEQ ID NO: 56 (antibody, V domains shown)
VH: B1 VH with D27G, G32S, D33S, A58V, V94A, E100D
notes: as for B1
B10: anti-CD22 heavy chain-only antibody with the VH of SEQ ID NO: 29 (antibody, V domains shown)
VH: B1 VH with K77R, E100D
notes: as for B1
B11: anti-CD22 heavy chain-only antibody with the VH of SEQ ID NO: 57 (antibody, V domains shown)
VH: B1 VH with D27G, G32S, D33S, A58V, E100D
notes: as for B1
B12: anti-CD22 heavy chain-only antibody with the VH of SEQ ID NO: 43 (antibody, V domains shown)
VH: B1 VH with D27G, K77R, E100D
notes: as for B1
B13: anti-CD22 heavy chain-only antibody with the VH of SEQ ID NO: 52 (antibody, V domains shown)
VH: B1 VH with H52S, A58S, N67S
notes: as for B1
B14: anti-CD22 heavy chain-only antibody with the VH of SEQ ID NO: 32 (antibody, V domains shown)
VH: B1 VH with K77R, K83N, N104S
notes: as for B1
B15: anti-CD22 heavy chain-only antibody with the VH of SEQ ID NO: 28 (antibody, V domains shown)
VH: B1 VH with K77R, K83N, E100D
notes: as for B1
B16: anti-CD22 heavy chain-only antibody with the VH of SEQ ID NO: 40 (antibody, V domains shown)
VH: B1 VH with N104S
notes: as for B1
B17: anti-CD22 heavy chain-only antibody with the VH of SEQ ID NO: 45 (antibody, V domains shown)
VH: B1 VH with H52S, A58S, N67S, N104S
notes: as for B1
B18: anti-CD22 heavy chain-only antibody with the VH of SEQ ID NO: 42 (antibody, V domains shown)
VH: B1 VH with H52S, E100D
notes: as for B1
B19: anti-CD22 heavy chain-only antibody with the VH of SEQ ID NO: 35 (antibody, V domains shown)
VH: B1 VH with K66E, N104S
notes: as for B1
B20: anti-CD22 heavy chain-only antibody with the VH of SEQ ID NO: 47 (antibody, V domains shown)
VH: B1 VH with D33G, H52S, A58S, N104S
notes: as for B1
B21: anti-CD22 heavy chain-only antibody with the VH of SEQ ID NO: 51 (antibody, V domains shown)
VH: B1 VH with D27G, G32S, D33S, H52S, A58S, N67S, E100D
notes: as for B1
B22: anti-CD22 heavy chain-only antibody with the VH of SEQ ID NO: 26 (antibody, V domains shown)
VH: B1 VH with A58V, N104S
notes: as for B1
B23: anti-CD22 heavy chain-only antibody with the VH of SEQ ID NO: 48 (antibody, V domains shown)
VH: B1 VH with Q41H, N104S
notes: as for B1
B24: anti-CD22 heavy chain-only antibody with the VH of SEQ ID NO: 33 (antibody, V domains shown)
VH: B1 VH with A58V, E100D
notes: as for B1
B25: anti-CD22 heavy chain-only antibody with the VH of SEQ ID NO: 53 (antibody, V domains shown)
VH: B1 VH with H52S, S56T, A58S, N67S
notes: as for B1
B26: anti-CD22 heavy chain-only antibody with the VH of SEQ ID NO: 58 (antibody, V domains shown)
VH: B1 VH with D27G, G32S, D33S, H52S, A58S, N67S, K77R, K83N, N104S
notes: as for B1
B27: anti-CD22 heavy chain-only antibody with the VH of SEQ ID NO: 46 (antibody, V domains shown)
VH: B1 VH with H52N, N104S
notes: as for B1
B28: anti-CD22 heavy chain-only antibody with the VH of SEQ ID NO: 41 (antibody, V domains shown)
VH: B1 VH with K77R
notes: as for B1
B29: anti-CD22 heavy chain-only antibody with the VH of SEQ ID NO: 27 (antibody, V domains shown)
VH: B1 VH with A58V, K77R, K83N, N104S
notes: as for B1
B30: anti-CD22 heavy chain-only antibody with the VH of SEQ ID NO: 24 (antibody, V domains shown)
VH: B1 VH with A58V, N67S, K77R
notes: as for B1
B31: anti-CD22 heavy chain-only antibody with the VH of SEQ ID NO: 54 (antibody, V domains shown)
VH: B1 VH with D27G, K77R
notes: as for B1
B32: anti-CD22 heavy chain-only antibody with the VH of SEQ ID NO: 44 (antibody, V domains shown)
VH: B1 VH with D27G, K66E, E100D
notes: as for B1
B33: anti-CD22 heavy chain-only antibody with the VH of SEQ ID NO: 49 (antibody, V domains shown)
VH: B1 VH with H52N
notes: as for B1
B34: anti-CD22 heavy chain-only antibody with the VH of SEQ ID NO: 36 (antibody, V domains shown)
VH: B1 VH with K77R, N104S
notes: as for B1

Biological target: T1, human CD22 protein (recombinant CD22 …)
Assay: ELISA on recombinant CD22 extracellular domain and/or cell binding

| binding result | Binder |
| --- | --- |
| binds | B1 |
| binds | B2 |
| binds | B3 |
| binds | B4 |
| binds | B5 |
| binds | B6 |
| binds | B7 |
| binds | B8 |
| binds | B9 |
| binds | B10 |
| binds | B11 |
| binds | B12 |
| binds | B13 |
| binds | B14 |
| binds | B15 |
| binds | B16 |
| binds | B17 |

| binding result | Binder |
| --- | --- |
| binds | B18 |
| binds | B19 |
| binds | B20 |
| binds | B21 |
| binds | B22 |
| binds | B23 |
| binds | B24 |
| binds | B25 |
| binds | B26 |
| binds | B27 |
| binds | B28 |
| binds | B29 |
| binds | B30 |
| binds | B31 |
| binds | B32 |
| binds | B33 |
| binds | B34 |

Biological target: T2, human CD22 on CD22-positive Burkitt's …
Assay: cell binding, Daudi cells
Experimental: Binding to CD22 positive cells was assessed by flow cytometry (Guava easyCyte 8HT, EMD Millipore) using the Daudi cell line (ATCC). Briefly, 100,000 target cells were stained with a dilution series of purified UniAbs™ for 30 minutes at 4° C. Following incubation, the cells were washed twice with flow cytometry buffer (1×PBS, 1% BSA, 0.1% NaN_3) and stained with goat F(ab')2 anti-human IgG conjugated to R-phycoerythrin (PE) (Southern Biotech, cat. #2042-09) to detect cell-bound antibodies. After a 20-minute incubation at 4° C., the cells were washed twice with flow cytometry buffer and then mean fluorescence intensity (MFI) was measured by flow cytometry. EC50 values were calculated using GraphPad Prism 7. Binding to *cynomolgus* CD22 positive cells was determined using the same protocol with the following modifications: the target cells were from CHO cells stably transfected to express the extracellular domain of *cynomolgus* CD22 and each antibody was tested at a single concentration (~1.7 µg/mL) so EC50 values were not calculated.

| binding result | Binder |
| --- | --- |
| binds | B1 |
| binds | B2 |
| binds | B3 |
| binds | B4 |
| binds | B5 |
| binds | B6 |
| binds | B7 |
| binds | B8 |
| binds | B9 |
| binds | B10 |
| binds | B11 |
| binds | B12 |
| binds | B13 |
| binds | B14 |
| binds | B15 |
| binds | B16 |
| binds | B17 |

| binding result | Binder |
| --- | --- |
| binds | B18 |
| binds | B19 |
| binds | B20 |
| binds | B21 |
| binds | B22 |
| binds | B23 |
| binds | B24 |
| binds | B25 |
| binds | B26 |
| binds | B27 |
| binds | B28 |
| binds | B29 |
| binds | B30 |
| binds | B31 |
| binds | B32 |
| binds | B33 |
| binds | B34 |
